Here are results for 17 molecules from patent US20230020729A1 (Memorial Sloan Kettering, published 2023).

The target of this assay is T1, human Fc Receptor-Like 5 (FcRL5), full length, expressed on cells (human, UniProt Q96RD9 16-977).
T1 construct: also called CD307e; IRTA2
T1 sequence: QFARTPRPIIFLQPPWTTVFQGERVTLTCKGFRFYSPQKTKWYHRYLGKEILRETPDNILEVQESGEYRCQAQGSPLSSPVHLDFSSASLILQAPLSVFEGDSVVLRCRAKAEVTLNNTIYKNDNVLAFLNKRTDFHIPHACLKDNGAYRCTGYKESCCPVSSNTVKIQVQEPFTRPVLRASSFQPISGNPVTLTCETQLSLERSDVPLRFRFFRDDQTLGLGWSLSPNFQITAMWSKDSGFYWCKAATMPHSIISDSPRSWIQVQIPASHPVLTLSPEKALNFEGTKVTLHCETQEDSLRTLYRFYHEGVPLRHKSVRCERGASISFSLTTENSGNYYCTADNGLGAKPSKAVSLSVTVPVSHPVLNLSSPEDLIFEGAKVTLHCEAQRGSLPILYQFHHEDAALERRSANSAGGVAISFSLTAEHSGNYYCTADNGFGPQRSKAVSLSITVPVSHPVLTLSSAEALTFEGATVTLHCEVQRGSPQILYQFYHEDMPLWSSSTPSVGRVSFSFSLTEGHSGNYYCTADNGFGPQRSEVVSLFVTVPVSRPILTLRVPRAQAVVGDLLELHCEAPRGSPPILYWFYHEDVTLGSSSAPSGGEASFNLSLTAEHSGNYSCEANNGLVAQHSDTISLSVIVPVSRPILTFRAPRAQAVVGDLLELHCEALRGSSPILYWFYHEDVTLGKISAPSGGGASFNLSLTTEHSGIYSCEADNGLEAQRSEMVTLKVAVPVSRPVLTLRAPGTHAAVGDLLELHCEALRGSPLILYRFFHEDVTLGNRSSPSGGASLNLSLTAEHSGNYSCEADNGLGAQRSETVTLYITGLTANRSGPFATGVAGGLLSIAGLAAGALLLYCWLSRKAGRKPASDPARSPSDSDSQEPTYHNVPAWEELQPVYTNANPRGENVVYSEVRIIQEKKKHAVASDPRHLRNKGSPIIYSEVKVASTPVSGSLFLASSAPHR
Briefly: scFv phage: ELISA on His-tag FcRL5, flow cytometry on FcRL5-overexpressing 3T3 and Raji cells.

B1: ET200-019 scFv (scFv)
scFv: NFMLTQPHSVSESPGKTVTISCTRSSGSIASNYVQWYQQRPGSAPTTVIYEDNQRPSGVPDRFSGSIDSSSNSASLTISGLKTEDEADYYCQSYDSSNSWVFGGGTKLTVLGSRGGGGSGGGGSGGGGSLEMAQVQLVQSGAEVKRPGSSVKVSCTASGGTFSSDAISWVRQAPGQGLEWMGGIIPMFGTANYAQKFQGRVTITADESTSTAYMELSSLRSEDTAVYYCAREGYYYPSAYLGSVLNDISSVYDEWGQGTLVTVSS
notes: VL-linker-VH; screened as scFv phage clone
Turning to B1, the binding result is listed as “binds”.

B2: ET200-015 scFv (scFv)
scFv: QSVVTQPPSVSVAPGKTARITCGGNNIGSKSVHWYQQKPGQAPVLVIYYDSDRPSGIPERFSGSNSGNTATLTISRVEAGDEADYYCQVWDSSSDVVFGGGTKLTVLGSRGGGGSGGGGSGGGGSLEMAEVQLVQSGAEVKKPGASVKVSCKASGYTFTSYGISWVRQAPGQGLEWMGWISAYNGNTNYAQKLQGRVTMTTDTSTSTAYMELRSLRSDDTAVYYCARWGGFGAVDHWGQGTLVTVSS
notes: as for B1
Take B2: the binding result is listed as “binds”.

B3: ET200-021 scFv (scFv)
scFv: QSVLTQPPSVSAAPGQKVTISCSGSNSNIGNNYVSWYQQLPGTAPKLLIYDNNKRPSGIPDRFSGSRSGTSATLGITGLQTGDEADYYCGTWNTTVTPGYVFGTGTKVTVLGSRGGGGSGGGGSGGGGSLEMAEVQLVQSGAEVKKPGASVKVSCKASGYTFTSYGISWVRQAPGQGLEWMGWISAYNGNTNYAQKLQGRVTMTTDTSTSTAYMELRSLRSDDTAMYYCARSVYDLDTWGQGTLVTVSS
notes: as for B1
Take B3: the binding result is listed as “binds”.

B4: ET200-027 scFv (scFv)
scFv: QSVLTQPPSVSGAPGQGVTIPCTGSSSNIGAGYDVHWYQQLPGTAPKLLIYGNNNRPSGVPDRFSGSRSGSSASLAITGLQAEDEADYYCQSYDSSLSDVVFGGGTKVTVLGSRGGGGSGGGGSGGGGSLEMAEVQLVQSGAEVKKPGATVKISCKVSGYTFTDYYMHWVQQAPGKGLEWMGLVDPEDGETIYAEKFQGRVTITADTSTDTAYMELSSLRSEDTAVYYCARYWSYSFDYLYMPEGNDWWGQGTLVTVSS
notes: as for B1
Consider B4, for which the binding result is given as “binds”.

B5: ET200-039 scFv (scFv)
scFv: NFMLTQPHSVSESPGKTVTISCTRSSGSIASNYVQWYQQRPGSSPTTVIYEDNQRPSGVPDRFSGSIDSSSNSASLTISGLKTEDEADYYCQSYDSSNWVFGGGTKLTVLGSRGGGGSGGGGSGGGGSLEMAEVQLVQSGAEVKKPGSSVKVSCKASGGTFSSYAISWVRQAPGQGLEWMGGIIPIFGTANYAQKFQGRVTITADESTSTAYMELSSLRSEDTAVYYCARSNYYYNDYWGQGTLVTVSS
notes: VL-linker-VH; screened as scFv phage clone; also called ET200-39
Take B5: the binding result is on record as “binds”.

B6: ET200-035 scFv (scFv)
scFv: NFMLTQPHSVSESPGKTVTISCTRSSGSIASNYVQWYQQRPGSAPTTVIYEDNQRPSGVPDRFSGSIDSSSNSASLTISGLKTEDEADYYCQSYDSTNWVFGGGTKLTVLGSRGGGGSGGGGSGGGGSLEMAQVQLVQSGAEVKKPGSSVKVSCKASGGTFSSYAISWVRQAPGQGLEWMGGIIPIFGTANYAQKFQGRVTITADESTSTAYMELSSLRSEDTAVYYCARYNYYFNDYWGQGTLVTVSS
notes: as for B1
B6: the binding result is given as “binds”.

B7: ET200-026 scFv (scFv)
scFv: NFMLTQPHSVSESPGKTVTISCTGSSGSIASNYVQWYQQRPGSAPTTVIYEDNQRPSGVPDRFSGSIDSSSNSASLTISGLKTEDEADYYCQSYDSSNWVFGGGTKLTVLGSRGGGGSGGGGSGGGGSLEMAEVQLVQSGAEVKKPGSSVKVSCKASGGTFSSYAISWVRQAPGQGLEWMGGIIPIFGTANYAQKFQGRVTITADESTSTAYMELSSLRSEDTAVYYCARNNHYYNDYWGQGTLVTVSS
notes: as for B1
As to B7, the binding result is on record as “binds”.

B8: ET200-022 scFv (scFv)
scFv: QSVVTQPPSVSAAPGQKVTISCSGSSSNIGNNYVSWYQQLPGTAPKLLIYDNNKRPSGIPDRFSGSKSGTSATLGITGLQTGDEADYYCGTWDSSLGAPYVFGTGTKVTVLGSRGGGGSGGGGSGGGGSLEMAEVQLVQSWGGSEQPGRSLRLSCAASGFTFDDYAMHWVRQAPGKGLEWVSGISWNSGSIGYADSVKGRFTISRDNAKNSLYLQMNSLRAEDTAMYYCARYRQVGSAYDSWGQGTLVTVSS
notes: as for B1
On to B8, for which the binding result is “binds”.

B9: ET200-016 scFv (scFv)
scFv: SSELTQDPAVSVALGQTVKITCQGDSLTDYHATWYQQKPGQAPVAVIYATNNRPTGIPDRFSGSSSGNTASLTITGAQAEDEADYYCNSRDSGTDEVLFGGGTKLTVLGSRGGGGSGGGGSGGGGSLEMAEVQLVETGGGLVKPGGSLRLSCAASGFTFSSYSMNWVRQAPGKGLEWVSSISSSSSYIYYADSVKGRFTISRDNAKNSLYLQMNSLRAEDTAVYYCARGQGYDYWGQGTLVTVSS
notes: as for B1
In the case of B9, the binding result is “binds”.

B10: ET200-020 scFv (scFv)
scFv: QSVVTQPPSVSAAPGQKVTISCSGSTSNIGNNDVSWYQQLPGTAPKLLIYDNNKRPSGIPDRFSGSKSGTSATLGITGLQTGDEADYYCGTWDSSVSASWVFGRGTKLTVLGSRGGGGSGGGGSGGGGSLEMAQVQLVQSGAEVKKPGASVKVSCKASGYTFTSYGISWVRQAPGQGLEWMGWISAYNGNTNYPQKLQGRVTMTTDPSTSTAYMELRSLRSDDTAVYYCARSMTSFDYWGQGTLVTVSS
notes: as for B1
B10: the binding result is reported as “binds”.

B11: ET200-023 scFv (scFv)
scFv: LPVLTQPPSVSVAPGKTARITCGGNNIGSKSVHWYQQKPGQAPVLVVYADSDRPSGIPERFSGSNSGNTATLTISRVEAGDEADYYCQVWDSSSYHNYVFGTGTKVTVLGSRGGGGSGGGGSGGGGSLEMAEVQLVQSGAEVKKPGASVKVSCKASGYTFTSYGISWVRQAPGQGLEWMGWISAYNGNTNYAQKLQGRVTMTTDTSTSTAYMELSSLRSEDTAMYYCARYWGFGVSDRWGQGTLVTVSS
notes: as for B1
Regarding B11, the binding result is on record as “binds”.

B12: ET200-018 scFv (scFv)
scFv: QAVLTQPPSTSGTPGQRVTISCSGSSSNIGRNGVNWYQQLPGAAPKVLIYNDNQRPSGVPDRVSGSQSGSSGTLAIDGLRSEDEADYYCAAWDDSLHGVVFGGGTKLTVLGSRGGGGSGGGGSGGGGSLEMAQVQLVQSGAEVKKPGASVKVSCKVSGYTLNELSMHWVRQAPGKGLEWMGGFDPEDGETIYAQKFQGRVTMTEDTSTDTAYMELSSLRSEDTAVYYCARGGYGDSWGQGTLVTVSS
notes: as for B1
On to B12, for which the binding result was “binds”.

B13: ET200-013 scFv (scFv)
scFv: QSVVTQPPSVSGAPGQRVTISCTGSTSNIGAGYDVHWYQQLPGTAPKLLIYTNNFRPSGVPDRFSASKSGTSASLAITGLQAEDEADYYCGTWDSSLSAVVFGGGTKLTVLGSRGGGGSGGGGSGGGGSLEMAEVQLVESGTEVKKPGASVKVSCKASGYMFTSYGLNWVRQAPGQGLEWMGWISANNGKTNYAKKFQDRVTMTRDTSTSTGYMELRSLRSDDTAVYYCARHIGGSYFDRWGQGTLVTVSS
notes: as for B1
Regarding B13, the binding result was “binds”.

B14: ET200-012 scFv (scFv)
scFv: QSVLTQPPSVSAAAGQKVTISCSGSDSNIGNNYVSWYQHLPGTAPKLLIYDVKNRPSGIPDRFSGSKSGSSATLGIAGLQPGDEADYYCGTWDSRLDAYVFGTGTKVTVLGSRGGGGSGGGGSGGGGSLEMAQMQLVQSGAEVKKPGASVKVSCKTSGFPFNIFGITWVRQAPGQGLEWMGWISGYNGNTDYPQKFQGRVTMSTDTSTSTAYMELRNLKSDDTAVYYCARGAYGGMDTWGQGTLVTVSS
notes: as for B1
Take B14: the binding result is reported as “binds”.

B15: ET200-017 scFv (scFv)
scFv: SYVLTQPPSVSVAPGKTARITCGGNNIGSKSVHWYQQKPGQAPVLVVYDDSDRPSGIPERFSGSNSGNTATLSISRVEAGDEADYYCQVWDSSSDHTVFGTGTKVTVLGSRGGGGSGGGGSGGGGSLEMAQVQLQQWGAGLLKPSETLSLTCAVYGGSFSGYYWSWIRQPPGKGLEWIGEINHSGSTNYNPSLKSRVTISVDTSKNQFSLKLSSVTAADTAVYYCARYYPGMDMWGQGTLVTVSS
notes: as for B1
Regarding B15, the binding result is on record as “binds”.

B16: ET200-002 scFv (scFv)
scFv: NFMLTQPHSVSESPGKTVTISCTRSSGSIASNYVQWYQQRPGSAPTTVIYEDNQRPSGVPDRFSGSIDSSSNSASLTISGLKTEDEADYYCQSYDSSNSVVFGGGTKLTVLGSRGGGGSGGGGSGGGGSLEMAQVQLVQSGTEVKKPGASVRVACKASGYPFNKYDINWVRQAPGQGLEWMGGIIPIFRTTNYAQKFQGRVTITADESTSTAYMELSSLRSEDTAVYYCAREWFYWDIWGQGTLVTVSS
notes: as for B1
Regarding B16, the binding result is recorded as “binds”.

B17: ET200-014 scFv (scFv)
scFv: SYVLTQPPSVSVAPGKTARITCGGNNIGSKSVHWYQQKPGQAPVLVIYYDSDRPSGIPERFSGSNSGNTATLTISRVEAGDEADYYCQVWDSSSDHYVFGTGTKVTVLGSRGGGGSGGGGSGGGGSLEMAEVQLVETGGGLVQPGGSLRLSCAASGFTFSSYAMSWVRQAPGKGLEWVSAISGSDGSTYYADSVKGRFTISRDNSKNTLYLQMNSLRDEDTAVYYCARSHEANLVGDWWGQGTLVTVSS
notes: as for B1
For B17, the binding result is listed as “binds”.
